From patent US7125847 (RESEARCH FOUNDATION OF STATE UNIVERSITY OF NEW YORK AT …, dated 2006)
Where no end group is shown, it is not given here.

Molecular target: stretch-activated channels (cationic SACs) of ventricular myocytes from rabbits with aortic … (rabbit)
Experiment: cell-based or functional assay

B1: GsMTx-4 purified from Grammostola spatulata venom (peptide)
peptide: GCLEFWWKCNPNDDKCCRPKLKCSKLFKLCNFSSG-NH2
modifications: disulfide (positions not given here); not fully specified (bridges); also: 3 disulfides (ICK motif), pairing not given here
  myocyte cell volume reduction relative to that produced by 1.5 T saline: ~40%
